In the supplement of paper PMC10567573:

B1: BCL2L13 (parent)
chain: QSLDQEILLKVKTEIEEELKSLDK

Variants of: B1
Test: protein stability index of a GFP-peptide fusion (GPS, HEK-293T) (PSI 1-6); higher = more stable
Details: c terminus: a fixed tail appended
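Note: lentivirally expressed fusions sorted by FACS into six bins by GFP to DsRed ratio, PSI derived from sequencing read proportions per bin multiplied by bin number.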

Protein stability index, by site and new letter:
Q1: L 3.7 | H 4.92 | E 4.67 | I 3.44 | N 4.98 | M 4.16 | F 3.89
K24: Y 4.25 | M 3.67 | N 5.04 | P 5.06 | F 4.89 | V 4.71 | T 4.79 | D 5.27 | A 5.1
K20: Y 4.3 | S 5.33 | W 4.91 | Q 4.63 | I 4.56 | P 5.35 | E 5.67 | L 4.56 | A 5.08 | D 4.86 | T 5.09
D4: W 2 | T 3.5 | C 4 | H 4.69 | M 2.83 | V 2.66
E18: Q 3.88 | M 1.98 | I 2.58 | V 3.69 | G 4.62 | K 3.74 | H 4.05 | T 3.92 | N 4.4 | C 3.41
L8: E 5.41 | P 5.17 | G 5.45 | Y 3.76 | D 5.83 | I 4.14 | S 5.18
K12: Q 4.62 | D 4.08 | G 5.65
E6: V 3.92 | W 2.76 | P 5.35 | Q 4.56 | F 3.51 | I 3.27 | Y 3.47
I7: G 5.33 | R 5.61 | Y 5.46 | V 5.62 | K 5.51 | A 5.66 | L 5.32 | T 4.27 | Q 5.12 | S 5.69
S21: I 4.77 | F 4.72 | Y 4.25 | D 5.47 | C 4.98 | A 4.83 | K 4.83
L9: E 5.45 | K 4.81 | S 5.21 | W 4.4 | M 4.49 | T 5.25
D23: N 4.04 | I 3.3 | F 2.14 | T 4.47 | P 4.85 | M 2.33 | K 4.33 | R 3.78
L3: D 5.72 | H 5.54 | W 4.66 | G 5.16 | C 4.97
L22: T 5.13 | M 5.12 | D 5.74 | A 4.81 | V 5.2 | I 4.49
I15: N 5.58 | L 4.85 | V 5.08 | D 5.89 | T 5.76 | Y 4.88 | A 5.33
L19: N 5 | W 4.46
Q5: E 4.8 | F 2.83 | M 4.05 | S 4.51 | P 4.4 | V 3.62
E14: G 5.05 | L 2.82 | Q 4.84 | I 2.92
S2: F 4.24 | I 4.91 | K 4.24 | C 4.09 | Y 4 | V 4.16 | M 4.2 | G 3.38 | Q 4.97
T13: P 5.34 | Y 4.14 | R 4.96 | D 4.44 | G 4.06 | V 3.58 | I 2.44 | W 3.48 | Q 3.67
E17: N 4.11 | Y 3.67 | S 4.81 | I 3.49 | F 3.54
K10: L 3.19 | F 3.67 | P 5.4 | W 3.15 | E 5.2 | C 4.16 | H 4.66 | D 5.67
V11: T 5.51 | P 5.61 | E 5.63 | L 3.5 | H 4.56
E16: F 3.53 | N 5.02 | T 4.72 | D 5.17 | W 3.66 | L 3.23 | G 5.21 | C 3.97 | S 4.93 | H 4.4
